assay: soluble on expression in E. coli; label from the status in PepcDB or PDB records

Row | Sequence | soluble on expression in E. coli
1 | MHSGDFMSVSTPTRDDFAALLEESFASNDLAEGYVAKGIVTAIEKDVAIVDVGLKVEGRVPLKEFGAKSKDGTLKVGDEVEVYVERIENALGEAVLSREKARREESWVKLEAKFEAGERVEGVIFNQVKGGFTVDLDGAVAFLPRSQVDIRPIRDVTPLMHNPQPFEILKMDKRRGNIVVSRRTVLEESRAEQRSEIVQNLEEGQVVDGVVKNITDYGAFVDLGGIDGLLHVTDMAWRRVNHPSEILNIGQQVKVQIIRINQETHRISLGMKQLESDPWDGISAKYPVGKKISGTVTNITDYGAFVELEPGIEGLIHISEMSWTKKNVHPGKILSTSQEVDVVVLEVDPSKRRISLGLKQTLENPWQAFAFSHPAGTEVEGEVKNKTEFGLFIGLEGDVDGMVHLSDLDWNRPGEQVIEEFNKGDVVKAVVLDVDVEKERISLGIKQLGKDAVGEAATSGDLRKNAVVSCEVIAVNDGGVEVKLVNHEDITSFIRRNDLARDRDDQRPERFAVGQVFDARVVNFSKKDRKVMLSIKALEIAEEKEAVAQFGSSDSGASLGDILGAALKNRGELEHHHHHH | soluble
2 | MHTQVHTARLVHTADLDSETRQDIRQMVTGAFAGDFTETDWEHTLGGMHALIWHHGAIIAHAAVIQRRLIYRGNALRCGYVEGVAVRADWRGQRLVSALLDAVEQVMRGAYQLGALSSSARARRLYASRGWLPWHGPTSVLAPTGPVRTPDDDGTVFVLPIDISLDTSAELMCDWRAGDVW | soluble
3 | MIAKTDSDIRHVTPSGGNVFADLGFHKQDAEKFYADSLNEIENTLAIKQQLMEEITLWITQNQMKQAEVATVLHISRPRVSDVVNKKCSKFTIDALVNMLSRIGKPVRVMVGP | not soluble
4 | MICFRTAFILILGVVIGTTAKRHNVRRHVNGKWTDKHCEEPPSLKEDLATWMQISMSGQFDDTALEEWSTNGKEPEICEKSPKADGVTTIMERALCPWDSRVNYQESREPKLIAESVCLCRKSRGSTGAFCMPIVRKVPILRRVSCDRSTGLWNYVRSTELITVGCHSVLPRTQRAARLAHLSSSRIIV | not soluble
5 | MICPRCADAHIELMATSPVKGVWTVYQCQHCLYTWRDTEPLRRTSREHYPQAFRMTQKDIDDAPMVPSIPPLLAEDKR | not soluble
6 | MIDADAIKMRILSMMEQLGMTPSAFADRAGISRSALTHITSGRNKVTLDMINKIMQGFDEWSAEWIIFGKGPQQSNKTAFENDLFSYSSVPEQELHTRTKDNCGIQSPSGRLEPEIKIVQMPAKQIERITVFYTDGSYQEFRSNKE | not soluble
7 | MIDERDKIILEILEKDARTPFTEIAKKLGISETAVRKRVKALEEKGIIEGYTIKINPKKLGYSLVTITGVDTKPEKLFEVAEKLKEYDFVKELYLSSGDHMIMAVIWAKDGEDLAEIISNKIGKIEGVTKVCPAIILEKLK | soluble
8 | MIDPVGLPDTFVRIVLVGSGNLATQTALALSEAASPPVQVWSRNAEHAERLASMLPGATATDRTEELLCDAELYLLAVSDHALESVAATLPPTSGIWAHTAGSMPMDTLRPYHAQIGVFYPLQTFSRERRVDYSSIPIYIEGNDESVVRLLESVARLISRNVLRCTSEQRLYLHLAAVFACNFTNHLYALSEQMLAAHGLPPRSLAPLIAETAAKVQEMSATEAQTGPAKRDDTNTLQKHLGLLNPYPDWQEIYRILSDSIRKMYGPKEQ | not soluble
9 | MIDVGGWYNKAELKAKGDEIVKEAKLATRREAESYRAALDAQAQQEARSKGVENTEHIRGMNPITPQEEAEFAAYLDESFSWIPSAFEGYGDPNPDDFDGIIKDLAKVEGTFGGSQSSTKNGDLAWTEKAKSEIEEWKGVFAENLYNNLLLPLPTIQDNHGKIAHVLTEAMKGTQNIYNGQKRDISQLADDTIKQLKKCGTRDGDNTKLGLTVAACLMGVAAAALALPSGGTSVYVTGIVMASISSSTIITNATVKPGDGDIGGKTVNDVIKSMSDGMSRISTEVSEQEQKVVKVLSKNYEMLTGLRQLGNSSKKPTPISPMRPTIADSKNPSSGLKPEGPQ | not soluble
10 | MIEISTSATSTTVTIEGDLDLSTRPQFHAATAKLGAVRRPLLVIDASRITFLDSTGAAFLISLADATRKRGGAAVLRGADERVLFVLETCGALDFFRLDPEPGLQEGDGGTRLRG | not soluble
11 | MIELEGVPELVDPVMVAAFEGWNDAGDAASTAVAHLDREWKGEVFAALDAEDYYDFQVNRPTVFMEDGVRKITWPTTRLSVVRVGGDKPRDLVLVRGIEPSMRWRSFCNELLGFAHELGVELVVVLGALLGDTPHTRPVPISGTTSDADLARRMDLEETKYEGPTGIVGILQEACTHAGVPAVSLWAAVPHYVSQPPNPKATLALLNRLEDLIGVRVPLGELPEDARAWQVGVDQLAAEDTEVAEYVQSLEEARDTA | soluble
